The test system of this series is MS2 coat protein. In words: apparent KD of MS2 coat protein; designed switch direction (-1 OFF switch, 1 ON switch): 1; higher = weaker reporter binding. An outline of the steps:
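Stalled E. coli RNA polymerase transcribed designed RNA switches on Illumina chips, which were then titrated with SNAP-549-labelled MS2 coat protein, doubling from 0.7 or 1.5 nM to 3 µM. Steps lasted from 0.8–1.5 h at the lowest concentration to 10–20 min at the highest. The apparent KD is each design's median over clusters of curve-fitted normalised fluorescence.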

The mark [1] stands for this setting: input ligand: microRNA oligo, concentration not stated.

For “GCGGUACCUAACAUGAGGAUCACCCAUGUUCCGGAAACGGCACAGGAUAUCUGUCCGAAAAGGUCAGAGAAGGGUGAAAACCGC [Fiskers NG3ss - 94] (Eterna round: R96, puzzle: Same State NG 3)”, the “apparent KD of MS2 coat protein” value is 489 nM (input ligand: FMN 200 uM), 396 nM under setting [1] and 478 nM (input ligand: none).

For “GCUACCAUAGAAGCCAACAUGAGGAUCACCCAUGUAUGUUGGUAGGAUAUCGAUUGCAAAGCGAUCGAGAAGGGCUAAGGUAGC [Mat - Same State NG 3 - JL Mod - D83] (Eterna round: R96, puzzle: Same State NG 3)”, the “apparent KD of MS2 coat protein” value by setting is: (input ligand: FMN 200 uM) 164 nM; under setting [1], 130 nM; (input ligand: none) 139 nM.

As for “GCUACCAUUGAAGCCAACAUGAGGAUCACCCAUGUAUGUUGGUAGGAUAUCGAUUGCAAAGCGAUCGAGAAGGGCUAAGGUAGC [Mat - Same State NG 3 - JL Mod - D81] (Eterna round: R96, puzzle: Same State NG 3)”, the “apparent KD of MS2 coat protein” value (input ligand: FMN 200 uM) stood at 81.2 nM, the “apparent KD of MS2 coat protein” value under setting [1] was 57.4 nM and the “apparent KD of MS2 coat protein” value (input ligand: none) worked out at 66.8 nM.

Regarding “GCUACCAUUGAAGCCUACAUGAGGAUCACCCAUGUAUGUAGGCAGGAUAUCGAUUGCAAAGCGAUCGAGAAGGGCUUAGGUAGC [Mat - Same State NG 3 - JL Mod - D90] (Eterna round: R96, puzzle: Same State NG 3)”, the “apparent KD of MS2 coat protein” value (input ligand: FMN 200 uM) amounted to 30.8 nM, the “apparent KD of MS2 coat protein” value under setting [1] is 52.2 nM and the “apparent KD of MS2 coat protein” value (input ligand: none) was 79.1 nM.

Turning to “GCUACCAUUGAAGCCUACAUGAGGAUCACCCAUGUAUGUAGGCAGGAUAUCGAUUGCUUUGCGAUCGAGAAGGGCUUAGGUAGC [JL SSNG3 1.30] (Eterna round: R96, puzzle: Same State NG 3)”, the “apparent KD of MS2 coat protein” value (input ligand: FMN 200 uM) amounted to 21.6 nM, the “apparent KD of MS2 coat protein” value under setting [1] came out at 47.5 nM and the “apparent KD of MS2 coat protein” value (input ligand: none) is 60.8 nM.

“GCUACGGACGUAGGAUAUGUAGGAUAUGGUGAGAGCUAAGCUUGGAAGUCACUUCAACCAGAAGGACAGAAGGACGCCGUGAGG [pwkr ssNG2 2FMN + F9.18] (Eterna round: R96, puzzle: Same State NG 2)”: the “apparent KD of MS2 coat protein” value (input ligand: FMN 200 uM) is 241 nM, the “apparent KD of MS2 coat protein” value under setting [1] stood at 13.4 nM and the “apparent KD of MS2 coat protein” value (input ligand: none) came out at 52.2 nM.

On to “GCUAGAAAUAAAGCCAACAUGAGGAUCACCCAUGUAUGUUGGCAGGAUAUCGUAUGCAAAGCAUACGAGAAGGGCCAAACUAGC [Mat - Same State NG 3 - JL Mod - D3] (Eterna round: R96, puzzle: Same State NG 3)”, for which the “apparent KD of MS2 coat protein” value by setting is: (input ligand: FMN 200 uM) 37.3 nM; under setting [1], 85 nM; (input ligand: none) 117 nM.

With “GCUAGAAUAAAAGCCAACAUGAGGAUCACCCAUGUAUGUUGGCAGGAUAUCGUUUGCAAAGCAAACGAGAAGGGCCAUACUAGC [Mat - Same State NG 3 - JL Mod - D23] (Eterna round: R96, puzzle: Same State NG 3)”, the “apparent KD of MS2 coat protein” value turned out to be 45.1 nM (input ligand: FMN 200 uM), 109 nM under setting [1] and 117 nM (input ligand: none).

Take “GCUAGAAUUAAAGCCAACAUGAGGAUCACCCAUGUAUGUUGGCAGGAUAUCGUUUGCUUUGCAAACGAGAAGGGCCAUACUAGC [JL SSNG3 1.08] (Eterna round: R96, puzzle: Same State NG 3)”: the “apparent KD of MS2 coat protein” value amounted to 47.7 nM (input ligand: FMN 200 uM), 98.1 nM under setting [1] and 134 nM (input ligand: none).

Take “GCUAGAAUUAACGCCUACAUGAGGAUCACCCAUGUAUGUAGGCAGGAUAUCGUUUGCAAAGCAAACGAGAAGGGCCUUACUAGC [Mat - Same State NG 3 - JL Mod - D31] (Eterna round: R96, puzzle: Same State NG 3)”: the “apparent KD of MS2 coat protein” value is, setting by setting: (input ligand: FMN 200 uM) 27.3 nM; under setting [1], 31 nM; (input ligand: none) 46.5 nM.

Take “GCUAGGAUAUGAAGAGGAUCACCCUUUAGAAGGAGCAUUAGCUAGGAUAUGAAGAGGAUCACCCUUUAGAAGGAGCACUACUCU [pwkr ssNG3 DX 2xF5 +2xFMN.7] (Eterna round: R96, puzzle: Same State NG 3)”: the “apparent KD of MS2 coat protein” value (input ligand: FMN 200 uM) came out at 531 nM, the “apparent KD of MS2 coat protein” value under setting [1] stood at 286 nM and the “apparent KD of MS2 coat protein” value (input ligand: none) was 292 nM.

Turning to “GCUAGGAUAUGACGAGGAUCACCCGUUAGAAGGAGCUUCAGCUAGGAUAUGACGAGGAUCACCCGUUAGAAGGAGCACUACUCU [pwkr ssNG3 DX 2xF5 +2xFMN.8] (Eterna round: R96, puzzle: Same State NG 3)”, the “apparent KD of MS2 coat protein” value is, setting by setting: (input ligand: FMN 200 uM) 205 nM; under setting [1], 90.9 nM; (input ligand: none) 91.4 nM.

With “GCUAGGAUUAAAGCCAACAUGAGGAUCACCCAUGUAUGUUGGUAGGAUAUCGUUUGCAAAGCAAACGAGAAGGGCUAACCUAGC [Mat - Same State NG 3 - JL Mod - D67] (Eterna round: R96, puzzle: Same State NG 3)”, the “apparent KD of MS2 coat protein” value is, setting by setting: (input ligand: FMN 200 uM) 88.3 nM; under setting [1], 73 nM; (input ligand: none) 92.6 nM.

“GCUAGUAUAAUUGUCAACAUGAGGAUCACCCAUGUAUGUUGGCAGGAUAUCGUUUGCAAAGCAAACGAGAAGGGCUAAACUAGC [Mat - Same State NG 3 - JL Mod - D11] (Eterna round: R96, puzzle: Same State NG 3)”: the “apparent KD of MS2 coat protein” value came out at 61.3 nM (input ligand: FMN 200 uM), 106 nM under setting [1] and 171 nM (input ligand: none).

On to “GCUCGAAUCAGAACCAACAUGAGGAUCACCCAUGUAUGUUGGUAGGAUAUCGUUUCUAAGAGAAACGAGAAGGGCCGAACGAGC [SameState NG3 #5] (Eterna round: R96, puzzle: Same State NG 3)”, for which the “apparent KD of MS2 coat protein” value reads like this: (input ligand: FMN 200 uM) 224 nM; under setting [1], 132 nM; (input ligand: none) 212 nM.

Consider “GCUCGAAUCAGAACCAACAUGAGGAUCACCCAUGUGUGUUGGUAGGAUAUCGUUUCUAAGGGAAACGAGAAGGGCCGAACGAGC [SameState NG3 #7] (Eterna round: R96, puzzle: Same State NG 3)”, for which the “apparent KD of MS2 coat protein” value (input ligand: FMN 200 uM) came out at 46.9 nM, the “apparent KD of MS2 coat protein” value under setting [1] was determined as 49.4 nM and the “apparent KD of MS2 coat protein” value (input ligand: none) amounted to 89.1 nM.

For “GCUCGACGUAUUGUUUACAUGAGGAUCACCCAUGUAGGUGCGGAGGAUAUCUACGUGUUUCAUGUAGAGAAGGUCGUGUCGAGC [SameState NG3 #91] (Eterna round: R96, puzzle: Same State NG 3)”, the “apparent KD of MS2 coat protein” value was 24.5 nM (input ligand: FMN 200 uM), 59.2 nM under setting [1] and 106 nM (input ligand: none).

As to “GCUCGACUGAUGGCCUACAUGAGGAUCACCCAUGUGACUGGGCAGGAUAUCUAGAUGCAGGAUGUAGAGAAGGGCCUGUCGAGC [SameState NG3 #43] (Eterna round: R96, puzzle: Same State NG 3)”, the “apparent KD of MS2 coat protein” value runs as follows: (input ligand: FMN 200 uM) 589 nM; under setting [1], 201 nM; (input ligand: none) 426 nM.

Consider “GCUCGAUGAAUGUCCUACAUGAGGAUCACCCAUGUACGUGGGCAGGAUAUUUACAUGCAGAGUGUAGAGAAGGGCCCAUCGAGC [SameState NG3 #62] (Eterna round: R96, puzzle: Same State NG 3)”, for which the “apparent KD of MS2 coat protein” value is, setting by setting: (input ligand: FMN 200 uM) 16.1 nM; under setting [1], 28.6 nM; (input ligand: none) 49.1 nM.

Turning to “GCUCGAUGAGCGGUUUACAUGAGGAUCACCCAUGUAAAUGGGCAGGAUAUUUACGUGCUUUGUGUAGAGAAGGGCCCAUCGAGC [SameState NG3 #75] (Eterna round: R96, puzzle: Same State NG 3)”, the “apparent KD of MS2 coat protein” value amounted to 18.1 nM (input ligand: FMN 200 uM), 47.4 nM under setting [1] and 112 nM (input ligand: none).

In the case of “GCUCGAUGAGCUGUCUACAUGAGGAUCACCCAUGUAGAUGCGGAGGAUAUUUACGUGCUUUAUGUAGAGAAGGCCGUAUCGAGC [SameState NG3 #79] (Eterna round: R96, puzzle: Same State NG 3)”, the “apparent KD of MS2 coat protein” value by setting is: (input ligand: FMN 200 uM) 12 nM; under setting [1], 15.6 nM; (input ligand: none) 17.9 nM.

Consider “GCUCGAUGAGCUGUCUACAUGAGGAUCACCCAUGUAGAUGGGCAGGAUAUUUACGUGCUUUGUGUAGAGAAGGGCCCAUCGAGC [SameState NG3 #77] (Eterna round: R96, puzzle: Same State NG 3)”, for which the “apparent KD of MS2 coat protein” value is, setting by setting: (input ligand: FMN 200 uM) 35 nM; under setting [1], 144 nM; (input ligand: none) 267 nM.

Take “GCUCGAUGAGCUGUUUACAUGAGGAUCACCCAUGUAGAUGCGGAGGAUAUCUACGUGCUUUAUGUAGAGAAGGCCGUAUCGAGC [SameState NG3 #81] (Eterna round: R96, puzzle: Same State NG 3)”: the “apparent KD of MS2 coat protein” value by setting is: (input ligand: FMN 200 uM) 14.2 nM; under setting [1], 22.2 nM; (input ligand: none) 28.4 nM.

On to “GCUCGAUGUGCUGUCUACAUGAGGAUCACCCAUGUAGAUGCGGAGGAUAUCUACGUGCUUUAUGUAGAGAAGGUCGUAUCGAGC [SameState NG3 #84] (Eterna round: R96, puzzle: Same State NG 3)”, for which the “apparent KD of MS2 coat protein” value runs as follows: (input ligand: FMN 200 uM) 52.5 nM; under setting [1], 50.2 nM; (input ligand: none) 90.4 nM.

Regarding “GCUCGAUGUGUUGUCUACAUGAGGAUCACCCAUGUAGAUGCGGAGGAUAUCUACGUGCUUUAUGUAGAGAAGGUCGUAUCGAGC [SameState NG3 #85] (Eterna round: R96, puzzle: Same State NG 3)”, the “apparent KD of MS2 coat protein” value by setting is: (input ligand: FMN 200 uM) 18 nM; under setting [1], 23.7 nM; (input ligand: none) 34.3 nM.

In the case of “GCUCGCACGAUGACCCACAUGAGGAUCACCCAUGUGUGUGGGUAGGAUAUCUAUAUUAAGGAUUUAGAGAAGGGCCGAGCGAGC [SameState NG3 #22] (Eterna round: R96, puzzle: Same State NG 3)”, the “apparent KD of MS2 coat protein” value is, setting by setting: (input ligand: FMN 200 uM) 450 nM; under setting [1], 419 nM; (input ligand: none) 578 nM.

(Values after the supplement of paper PMC9170038.)
